Laboratory results: the supplement of paper PMC7125110
± gives the standard error. This sample holds only a part of the variants without activity.

B1: glmS ribozyme (parent)
chain: AUAAAAGCGCCAGAACUACAGAAAUGUAGUUGACGAGGAGGAGGUUUAUCGAAUUUUCGGCGGAUGCCUCCAAA

Variants of: B1
Assay: self-cleavage kobs at 2500 uM GlcN6P; higher = faster cleavage; RNA array
Conditions: with glucosamine-6-phosphate
Summary of the method: (§1)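 Barcoded glmS ribozyme variants on sequenced MiSeq chips were transcribed in situ by E. coli RNA polymerase and tracked through a hybridised Cy3 probe at 37 °C. Glucosamine-6-phosphate (40 μM to 10 mM) in HEPES/KCl/Mg(OAc)2 buffer was flowed in, and tiles were imaged over ~14 h. Signals were normalised to baseline and to non-cleaving reference variants; per-tile medians were fit to one- or two-exponential decays to give kobs. kcat and KM came from weighted Michaelis–Menten fits across concentrations.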

Row | Variant | self-cleavage kobs at 2500 uM GlcN6P
1 | A12U A64G C67G | 7.12e-05 ± 2.2e-05 s⁻¹
2 | C11U G35C U47G G63A | < 1e-05 s⁻¹
3 | G9C C10U A15G U69G | < 1e-05 s⁻¹
4 | C11U U31C C50A | < 1e-05 s⁻¹
5 | G9A G29C G37U A48G A52C C70G | < 1e-05 s⁻¹
6 | C8G A12C A42U C68U | < 1e-05 s⁻¹
7 | C10U A33U G40C C50U | < 1e-05 s⁻¹
8 | C8A G35A G38A A53G | < 1e-05 s⁻¹
9 | C10G C34A G37A G60U | < 1e-05 s⁻¹
10 | C10A U30C U55C | < 1e-05 s⁻¹
11 | A12U G32C G40U U45C | < 1e-05 s⁻¹
12 | A12U G35A A52C C58G C68G | < 1e-05 s⁻¹
13 | C10A C16U A48U | < 1e-05 s⁻¹
14 | G9A A14C G43U U46A | < 1e-05 s⁻¹
15 | C10U U57G C67U C70U | 6.12e-05 ± 2.7e-05 s⁻¹
16 | C11G C50G C58A | 0.00031 ± 0.00011 s⁻¹
17 | C11U U30G U45G | 0.000105 ± 4e-05 s⁻¹
18 | C11U U30G U45A | 0.00111 ± 0.00024 s⁻¹
19 | C8A G13C U65C | < 1e-05 s⁻¹
20 | C11G A12C G38U C50U | < 1e-05 s⁻¹
21 | C8A A14G C68U C70G | < 1e-05 s⁻¹

Row | Variant | self-cleavage kobs at 2500 uM GlcN6P
22 | G7U A12G U69A | < 1e-05 s⁻¹
23 | C11U A39U U49A U69C | < 1e-05 s⁻¹
24 | C11A A15U G44C | < 1e-05 s⁻¹
25 | G7U C11U A12U G38C G43U U54A | < 1e-05 s⁻¹
26 | A12G G40A G60A U69G | < 1e-05 s⁻¹
27 | A12G G40U U46A C58U | < 1e-05 s⁻¹
28 | C10U G51C C58G | < 1e-05 s⁻¹
29 | A12C A15U G43C G51A | < 1e-05 s⁻¹
30 | C11G U56G G59U | 4.72e-05 ± 2e-05 s⁻¹
31 | A12U C34U G38A C50G | 0.000122 ± 3e-05 s⁻¹
32 | C8G A52G G59A | < 1e-05 s⁻¹
33 | A12C G13C A42U U49C | < 1e-05 s⁻¹
34 | C8G G59C A64G | < 1e-05 s⁻¹
35 | C8U G29C G60U | < 1e-05 s⁻¹
36 | A12G G13U G51U G63U C70A | 0.000271 ± 9.9e-05 s⁻¹
37 | C8U A39G G60C | < 1e-05 s⁻¹
38 | C10U G32U U69A | 4.03e-05 ± 1.7e-05 s⁻¹
39 | C11A G37A G38C | < 1e-05 s⁻¹
40 | G9C U45G C50U G59U | < 1e-05 s⁻¹
41 | C8U A33C U45A A52U | < 1e-05 s⁻¹
42 | A12G A39C G51U U56A | < 1e-05 s⁻¹

Row | Variant | self-cleavage kobs at 2500 uM GlcN6P
43 | C8A G38A G63U C68U | < 1e-05 s⁻¹
44 | C11A A52G C70U | 8.24e-05 ± 3.2e-05 s⁻¹
45 | C11G A33U U46G G51C U54A | < 1e-05 s⁻¹
46 | C8G A14G G44C U54A C71U | < 1e-05 s⁻¹
47 | C8G C58U C61U G63U C68U | < 1e-05 s⁻¹
48 | C10U G51C G59U C67U | < 1e-05 s⁻¹
49 | C8A G37A A42C | < 1e-05 s⁻¹
50 | C10A C11A A39C | < 1e-05 s⁻¹
51 | G9U U54C G63C | < 1e-05 s⁻¹
52 | A12C U31C U54A C67A | 6.33e-05 ± 2e-05 s⁻¹
53 | C10U A42C G62A U65G C68U | < 1e-05 s⁻¹
54 | C10A U45G U54G | < 1e-05 s⁻¹
55 | C8U G32U C34U C58G | < 1e-05 s⁻¹
56 | C10A G40U U56A U65C | < 1e-05 s⁻¹
57 | C11U A12C G32U | < 1e-05 s⁻¹
58 | C8G A12U C16U G43U | < 1e-05 s⁻¹
59 | G9A A36U A53G | < 1e-05 s⁻¹
60 | A12U G41C U46G C68A | < 1e-05 s⁻¹
61 | A12G A36C G38A A64U | < 1e-05 s⁻¹
62 | A12U U31A C50G C61U | 6.19e-05 ± 2.1e-05 s⁻¹
63 | C10A A12C U30A U31A | 5.52e-05 ± 2.3e-05 s⁻¹

Row | Variant | self-cleavage kobs at 2500 uM GlcN6P
64 | G9C G40U G51U A52U | < 1e-05 s⁻¹
65 | C10G G60C C61A | < 1e-05 s⁻¹
66 | A12C C16U A39U | 0.00306 ± 0.00084 s⁻¹
67 | A12G U46G C71A | 5e-05 ± 2e-05 s⁻¹
68 | C8G G38A A48G U57G | < 1e-05 s⁻¹
69 | C8G G29C G38C U57C | < 1e-05 s⁻¹
70 | C10U A15G G44U C50G | < 1e-05 s⁻¹
71 | C11G A33U U47G | < 1e-05 s⁻¹
72 | C10U C16U G37U G38A A39G C50G A64G U65C | 0.000287 ± 0.00013 s⁻¹
73 | A12C G29U U65A | 0.000175 ± 4.1e-05 s⁻¹
74 | C8G G37C G43A G59A | < 1e-05 s⁻¹
75 | C8A C34G G66C | < 1e-05 s⁻¹
76 | C11A C34A A42C C70A | < 1e-05 s⁻¹
77 | C10U G26A | 7.4e-05 ± 2.8e-05 s⁻¹
78 | C8G A64U C70U | < 1e-05 s⁻¹
79 | C10A G59C G66A C67A | < 1e-05 s⁻¹
80 | G9U G32U G38U A42U | < 1e-05 s⁻¹
81 | A12G A48G U55C U57G | < 1e-05 s⁻¹
82 | C11A C34G U49A | < 1e-05 s⁻¹
83 | A12U G44U C67U | 0.0167 ± 0.0049 s⁻¹
84 | C8U G37U U54G | < 1e-05 s⁻¹

Variants of: B1
Assay: self-cleavage kobs at 10000 uM GlcN6P; higher = faster cleavage; RNA array
Conditions: with glucosamine-6-phosphate
Summary of the method: as §1

Row | Variant | self-cleavage kobs at 10000 uM GlcN6P
85 | A12U G41C U46G C68A | < 1e-05 s⁻¹
86 | C10U C16U G37U G38A A39G C50G A64G U65C | 0.0013 ± 0.0004 s⁻¹
87 | A12C G29U U65A | 0.000443 ± 7.6e-05 s⁻¹
